In data set [1] the target is T1, hNE (Homo sapiens, UniProt P08246).
T1 construct: purchased Elastin Products Company (EPC)
T1 sequence (P08246 30-247): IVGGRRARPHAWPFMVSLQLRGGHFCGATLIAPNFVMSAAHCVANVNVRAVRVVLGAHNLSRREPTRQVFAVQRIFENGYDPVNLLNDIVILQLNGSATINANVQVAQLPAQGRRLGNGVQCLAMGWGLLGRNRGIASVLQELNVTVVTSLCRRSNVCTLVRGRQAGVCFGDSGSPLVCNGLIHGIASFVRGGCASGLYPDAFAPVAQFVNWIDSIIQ
Description: hNE inhibition, hydrolysis of elastin (Elastin-CongoRed). The class given is biochemical. As to the method: 1.6.2. Inhibition of the hydrolysis of elastin, a natural substrate of hNE. […] The samples were incubated for 16 hours at 37° C. with orbital shaking (900 rpm). The samples were then centrifuged at 90′000 g for 30 minutes at 4° C. to separate the insoluble Elastin from the digested and soluble molecule fragments. The soluble fraction was transferred into a 384-wells clear plate and the absorbance of Congo-red was measured at 495 nm in a SpectraMax M2e Microplates Reader (Molecular Devices, California, USA). The absorbance of the samples at different inhibitor: hNE molar ratios was compared to that measured in the absence of inhibitor, to determine the residual hNE activity. A sample of Elastin-Congo red without elastase was used as blank.

For data set [2], the system named is hNE-induced alveolar-capillary damage. Put plainly: hNE-induced acute lung injury mouse model. The class given is in vivo, mice. The settings on record: nasal instillation 15 min prior to hNE 25 μg; molar ratio Nb/HNE 4/1. On the procedure:
The in vivo efficacy of NbE201 was determined using a mouse model of acute lung injury induced by nasal instillation of HNE (L agente et al., 2009, American Thoracic Society International Conference Abstracts. (American Thoracic Society), A5668. doi: 10.1164/ajrccm-conference.2009.179.1_MeetingAbstracts.A5668). […]
It was determined with the hemoglobin assay kit (Sigma) and performed according to the manufacturer's instructions. […] A measurement of the optical density at 400 nm allowed the quantification of this stable complex. […]
Histological sections of the lung were digitized using a panoramic scan 2 (3[…]). […] This semi-automated analysis made it possible to quantify the damaged alveolar surface. […] The percentage of injured surface was determined by the ratio: % injured area=(injured area/alveolar area)×100

Data set [3] is described as follows: Aggregates detection by Nanoparticle Tracking Analysis. The class given is physicochemical. The following applies: 0.25 mg/ml, after nebulization. As to the method: 2.3.5 Aggregates Detection. Protein aggregates were visualized by Nanoparticle Tracking Analysis (NTA) (ZetaView, 220 Twin Laser, Particle Metrix, Ammersee, Germany), a technique used for measuring single particle size and concentration. NbE201, NbE201-PEG10 and NbE201-PEG40 solutions (0.25 mg/ml) were analysed before and after nebulization. 11 positions were analysed for which following parameters were used: • Laser wavelength: 488 nm • Scatter, no fluorescence • Sensitivity: 80 • Shutter: 100

Data set [4] can be described thus: Physical stress (nebulization, agitation, freeze/thaw): concentration by A280 nm before/after centrifugation. The following applies: for Initial concentration percentage after centrifugation: 10 000 g 10 min. The class given is physicochemical. As to the method:
A 0.25 mg/ml solution of NbE201, NbE201-PEG10 or NbE201-PEG40 was prepared and divided in order to apply the following conditions: control, 1 or 4 h of agitation with a magnetic bar, nebulization, 5 or 10 freeze/thaw cycles.
2.3.1 Stability towards agitation. 100 μl of a 0.25 mg/ml ISVDs solution were agitated in a 1 ml glass vial with a 2×5 mm magnetic bar (VWR, Radnor, USA) at 200 rpm during 1 or 4 hours.
2.3.2 Stability towards Nebulization. 300 μl of a 0.25 mg/ml ISVDs solution were nebulized with a MeSH nebulizer (InnoSpire Go, Phillips, Amsterdam, The Netherlands).
2.3.3 Stability towards freezing/thawing. 100 μl of a 0.25 mg/ml ISVDs solution underwent 5 or 10 freeze/thaw (F/T) cycles. Freezing was performed in a −20° C. freezer and thawing was performed at RT.
2.3.4 Concentration measurements. Concentrations and UV spectra were measured by spectrophotometry (NanoDrop 2000/2000c spectrophotometer, ThermoFisher). Concentrations were determined based on the absorbance at 280 nm. NbE201 and NbE201-Cter mass extinction coefficients applied to the measurements were 1.888 and 1.716 (mg/mL)^−1 cm^−1 respectively. Regarding the ISVDs exposed to physical stresses, the concentration was read before and after centrifugation at 10 000 g at 4° C. for 10 min.

For data set [5], the target named is T2, proteolytic (elastase) activity of cystic fibrosis patient sputa (Homo sapiens, UniProt P08246).
T2 construct: Sputa from patients with cystic fibrosis, COPD or ciliary diskenisia above 18 years old were collected; from tissue; host or cells: expectorated sputum of patients with cystic fibrosis, COPD or ciliary dyskinesia
T2 sequence (P08246 30-267): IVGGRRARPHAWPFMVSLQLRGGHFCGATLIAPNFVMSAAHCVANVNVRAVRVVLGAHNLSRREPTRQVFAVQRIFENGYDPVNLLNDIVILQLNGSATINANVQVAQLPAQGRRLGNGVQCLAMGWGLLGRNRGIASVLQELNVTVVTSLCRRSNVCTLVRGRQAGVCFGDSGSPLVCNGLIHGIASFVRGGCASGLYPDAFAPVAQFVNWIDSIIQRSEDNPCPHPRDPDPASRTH
Put plainly: Sputum proteolytic activity inhibition, cystic fibrosis sputa. The class given is biochemical. The following applies: exposure time 0. On the procedure: 2.2.2 Evaluation of the proteolytic activity inhibition in CF, COPD and ciliary diskenisia sputa. […] Sputa collection procedures were evaluated by the local ethic committee (comité d'Ethique Hospitalo-Facultaire des Cliniques universitaires Saint-Luc) and approved under the Belgian registration number B4032021000071.
Sputum proteolytic activity was assessed by following with a spectrophotometer the absorbance at 410 nm of suc-Ala-Ala-Pro-Val-pNA degradation, the chromogenic hNE substrate. Sputa were classified as mucoid, muco-purulent or purulent (Serisier et al., 2009, Respir Res, 10 (1): 63. doi: 10.1186/1465-9921-10-6). According to the experiment, 10 to 20 mg of sputum were weighted in a 96-well plate. ISVDs were then added to the sputum samples and pre-incubated at 37° C. during different periods of time. The hNE substrate was diluted to a concentration of 1 mM in a tris buffer (0.1M tris, 0.5M NaCl, 0.01% Sodium azide (NaN3), pH 7.5) and 50 μl of this solution were added to the wells. The substrate degradation was followed during 50 min. […] Slopes were then calculated from the regression line drawn from the absorbance measurements and were expressed as a percentage of the sputum proteolytic activity without ISVDs.

In data set [6] the target is T3, human neutrophil elastase (human, UniProt P08246 30-247, glycans (NAG-NAG-FUC) at N109 and N204, chymotrypsinogen numbering, seen in the crystal).
T3 construct: Purified hNE bought from Elastin Products Company; In the crystal, density is defined for I1 to Q218; also called hNE; HNE
T3 sequence: T1 sequence (P08246 30-247)
Description: capture of hNE on streptavidin magnetic beads via biotinylated NbE34 (phage panning).
Description: The recovery of the beads after each step was carried out on a magnetic stand for 1.5 ml Eppendorf tubes for two minutes. All the incubation steps took place at room temperature and in a shaker with vertical rotation. Washing steps were carried out with 500 μl phosphate-buffered saline solution with a detergent solution of 0.01% (PBST, PBS with 0.01%, % v/v, Tween 20). First, 0.04 mg of beads were functionalized with 4 μg of chemically biotinylated NbE34 in 1 ml of PBS. After 5 washings, the beads were incubated with 5 μg of hNE in 500 μL of PBS. A negative control tube with magnetic beads functionalized with NbE34 but without hNE was also prepared. Then, the beads in each tube were incubated in 500 μl of blocking buffer. The blocking buffer was casein 0.1% (% w/v), bovine serum albumin 0.1% (% w/v) or protein free-blocking buffer (ThermoFisher Scientific, United States) in rounds 1, 2 and 3, respectively. In the next step, 2×10¹¹ phages from the library were incubated in the positive and the negative tubes and incubated for 1 hour. The beads were washed at least 10 times with PBST (PBS containing 0.05%, % v/v, Tween 20), previous to the elution of phages with 200 μl of triethanolamine (TEA) pH 11 for 10 minutes and neutralization with 200 μl of trisaminomethane hydrochloric acid (Tris-HCl) 1M pH8. […]

Peptide text beside a SMILES is read from it. * marks the point of attachment. MeOSuc = COC(=O)CCC(=O)*; CH2Cl = ClC*

As to `COC(=O)CCC(=O)N[C@@H](C)C(=O)N[C@@H](C)C(=O)N1CCC[C@H]1C(=O)N[C@H](C(=O)CCl)C(C)C` [EI3, methyl 4-[[(2S)-1-[[(2S)-1-[(2S)-2-[[(3S)-1-chloro-4-methyl-2-oxopentan-3-yl]carbamoyl]pyrrolidin-1-yl]-1-oxopropan-2-yl]amino]-1-oxopropan-2-yl]amino]-4-oxobutanoate, reference compound] (MeOSuc-AAPV-CH2Cl), the “inhibition of hNE activity, elastin hydrolysis” value in data set [1] ([inhibitor]:[hNE] ratio 15) was 95%.

Regarding `CC(C)(C)C(=O)Oc1ccc(S(=O)(=O)Nc2ccccc2C(=O)NCC(=O)O)cc1` [Sivelestat, reference compound], the “inhibition of hNE activity, elastin hydrolysis” value in data set [1] ([inhibitor]:[hNE] = 50) is 40%.

With “AAT: endogenous glycoprotein, covalent natural inhibitor of neutrophil elastase”, the “protection against hNE-induced alveolar-capillary damage” value in data set [2] is recorded as “protects the lungs from developing alveolar-capillary damage”.

B1: NbE201-PEG10: NbE201-Cter (linker SPSTPPTPSPSTPP + C-terminal cysteine) conjugated to linear 10 kDa PEG-maleimide (conjugate)
VHH: QVQLQESGGGLVQAGGSLRLSCVVPGRTISLYRMGWFRQAPGKEREFVAGINWSGDMTDYVDSVKGRFTISRDNAKNTVYLEMNSLKPEDTAIYYCTADPKLLPLADSSYGYWGQGTQVTVSSSPSTPPTPSPSTPPC
As to B1, the “average counted particles per frame (NTA)” value in data set [3] was “far below that threshold”. The “Initial concentration percentage before centrifugation” value in data set [4] (Agitation (1 h)) is listed as 98 ± 1%; in data set [4] (Agitation (4 h)) it was 100 ± 1%; in data set [4] (Control), 100 ± 0%; in data set [4] (F/T 5x), 99 ± 1%; in data set [4] (F/T 10x), 98 ± 2%; in data set [4] (Nebulization), 85 ± 2% (***). Moreover, the “Initial concentration percentage after centrifugation” value was determined as 97 ± 2% in data set [4] (Agitation (1 h)); 93 ± 2% in data set [4] (Agitation (4 h)); 94 ± 2% in data set [4] (Control); 99 ± 1% in data set [4] (F/T 5x); 98 ± 1% in data set [4] (F/T 10x); 85 ± 3% in data set [4] (Nebulization). The “sputum proteolytic activity inhibition at time 0, compared with NbE201” value in data set [5] was “No significant difference”.

B2: NbE34 (VHH)
VHH: QVQLQESGGGLVQPGGSLRLSCAASGFTLDYHAIGWFRQAPGKEREGVSCISSSGGRADYADSVKGRFTISRDNAKNTVYLQMNSLKPEDTAVYYCATRCAVVGGTYYYGMDYWGKGTQVTVSS
modifications: chemically biotinylated (sites not given)
notes: It was used to capture hNE on streptavidin beads for the panning; also called biotinylated capture ISVD NbE34
Regarding B2, the binding result in data set [6] is “binds”.
